Measured values published in paper PMC12618258, “The human ribosome modulates multidomain protein biogenesis by delaying cotranslational domain docking” (Nature Structural & Molecular Biology, 2025).

Target: the molecule itself
Experiment: SEC-MALS; 100 μl of Ns at 0.1 or 0.2 mg/ml (~5 or 10 µM) on Superdex 200 10/30 increase GL; 20 mM HEPES pH 7.5, 100 mM KCl, 5 mM magnesium acetate, 200 mM arginine-HCl, 1 mM DTT, 2 mM sodium azide

B1: isolated Ns (isoNs, residues 1–190) of firefly luciferase (domain or fragment, UniProt P08659 1-190, looked up)
chain: MEDAKNIKKGPAPFYPLEDGTAGEQLHKAMKRYALVPGTIAFTDAHIEVNITYAEYFEMSVRLAEAMKRYGLNTNHRIVVCSENSLQFFMPVLGALFIGVAVAPANDIYNERELLNSMNISQPTVVFVSKKGLQKILNVQKKLPIIQKIIIMDSKTDYQGFQSMYTFVTSHLPPGFNEYDFVPESFDRDK
notes: firefly luciferase (FLuc, 550 residues), UniProt Q27758_PHOPY, residues 1-190 (Ns subdomain), off the ribosome; The truncations carried an N-terminal His-SUMO tag; The printed monomer mass of ~21.5 kDa fits the cleaved fragment; source: E. coli BL21, purified (HisTrap, Ulp1 cleavage, reverse IMAC, Superdex gel filtration); not shown: His, N-terminal, cleaved; SUMO, N-terminal, cleaved
  stoichiometry N: 2
